Test results taken from IntAct's records for PubMed 31515488.

B1: Melanoma-associated antigen 8 (Homo sapiens), P43361 (parent)
chain: MLLGQKSQRYKAEEGLQAQGEAPGLMDVQIPTAEEQKAASSSSTLIMGTLEEVTDSGSPSPPQSPEGASSSLTVTDSTLWSQSDEGSSSNEEEGPSTSPDPAHLESLFREALDEKVAELVRFLLRKYQIKEPVTKAEMLESVIKNYKNHFPDIFSKASECMQVIFGIDVKEVDPAGHSYILVTCLGLSYDGLLGDDQSTPKTGLLIIVLGMILMEGSRAPEEAIWEALSVMGLYDGREHSVYWKLRKLLTQEWVQENYLEYRQAPGSDPVRYEFLWGPRALAETSYVKVLEHVVRVNARVRISYPSLHEEALGEEKGV
B2: Peroxisomal bifunctional enzyme (Homo sapiens), Q08426 (parent)
chain: MAEYTRLHNALALIRLRNPPVNAISTTLLRDIKEGLQKAVIDHTIKAIVICGAEGKFSAGADIRGFSAPRTFGLTLGHVVDEIQRNEKPVVAAIQGMAFGGGLELALGCHYRIAHAEAQVGLPEVTLGLLPGARGTQLLPRLTGVPAALDLITSGRRILADEALKLGILDKVVNSDPVEEAIRFAQRVSDQPLESRRLCNKPIQSLPNMDSIFSEALLKMRRQHPGCLAQEACVRAVQAAVQYPYEVGIKKEEELFLYLLQSGQARALQYAFFAERKANKWSTPSGASWKTASARPVSSVGVVGLGTMGRGIVISFARARIPVIAVDSDKNQLATANKMITSVLEKEASKMQQSGHPWSGPKPRLTSSVKELGGVDLVIEAVFEEMSLKKQVFAELSAVCKPEAFLCTNTSALDVDEIASSTDRPHLVIGTHFFSPAHVMKLLEVIPSQYSSPTTIATVMNLSKKIKKIGVVVGNCFGFVGNRMLNPYYNQAYFLLEEGSKPEEVDQVLEEFGFKMGPFRVSDLAGLDVGWKSRKGQGLTGPTLLPGTPARKRGNRRYCPIPDVLCELGRFGQKTGKGWYQYDKPLGRIHKPDPWLSKFLSRYRKTHHIEPRTISQDEILERCLYSLINEAFRILGEGIAASPEHIDVVYLHGYGWPRHKGGPMFYASTVGLPTVLEKLQKYYRQNPDIPQLEPSDYLKKLASQGNPPLKEWQSLAGSPSSKL
partner: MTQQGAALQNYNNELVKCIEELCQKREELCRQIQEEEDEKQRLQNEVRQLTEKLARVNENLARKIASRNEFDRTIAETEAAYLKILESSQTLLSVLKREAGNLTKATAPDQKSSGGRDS
B3: PiggyBac transposable element-derived protein 1 (Homo sapiens), Q96JS3 (parent)
chain: MYEALPGPAPENEDGLVKVKEEDPTWEQVCNSQEGSSHTQEICRLRFRHFCYQEAHGPQEALAQLRELCHQWLRPEMHTKEQIMELLVLEQFLTILPKELQPCVKTYPLESGEEAVTVLENLETGSGDTGQQASVYIQGQDMHPMVAEYQGVSLECQSLQLLPGITTLKCEPPQRPQGNPQEVSGPVPHGSAHLQEKNPRDKAVVPVFNPVRSQTLVKTEEETAQAVAAEKWSHLSLTRRNLCGNSAQETVMSLSPMTEEIVTKDRLFKAKQETSEEMEQSGEASGKPNRECAPQIPCSTPIATERTVAHLNTLKDRHPGDLWARMHISSLEYAAGDITRKGRKKDKARVSELLQGLSFSGDSDVEKDNEPEIQPAQKKLKVSCFPEKSWTKRDIKPNFPSWSALDSGLLNLKSEKLNPVELFELFFDDETFNLIVNETNNYASQKNVSLEVTVQEMRCVFGVLLLSGFMRHPRREMYWEVSDTDQNLVRDAIRRDRFELIFSNLHFADNGHLDQKDKFTKLRPLIKQMNKNFLLYAPLEEYYCFDKSMCECFDSDQFLNGKPIRIGYKIWCGTTTQGYLVWFEPYQEESTMKVDEDPDLGLGGNLVMNFADVLLERGQYPYHLCFDSFFTSVKLLSALKKKGVRATGTIRENRTEKCPLMNVEHMKKMKRGYFDFRIEENNEIILCRWYGDGIISLCSNAVGIEPVNEVSCCDADNEEIPQISQPSIVKVYDECKEGVAKMDQIISKYRVRIRSKKWYSILVSYMIDVAMNNAWQLHRACNPGASLDPLDFRRFVAHFYLEHNAHLSD
partner: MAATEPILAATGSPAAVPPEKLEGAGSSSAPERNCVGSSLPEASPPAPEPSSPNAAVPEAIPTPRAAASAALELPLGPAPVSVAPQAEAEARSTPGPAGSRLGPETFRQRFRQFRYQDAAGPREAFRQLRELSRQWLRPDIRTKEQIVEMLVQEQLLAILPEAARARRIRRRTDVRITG
B4: STAM-binding protein (Homo sapiens), O95630 (parent)
chain: MSDHGDVSLPPEDRVRALSQLGSAVEVNEDIPPRRYFRSGVEIIRMASIYSEEGNIEHAFILYNKYITLFIEKLPKHRDYKSAVIPEKKDTVKKLKEIAFPKAEELKAELLKRYTKEYTEYNEEKKKEAEELARNMAIQQELEKEKQRVAQQKQQQLEQEQFHAFEEMIRNQELEKERLKIVQEFGKVDPGLGGPLVPDLEKPSLDVFPTLTVSSIQPSDCHTTVRPAKPPVVDRSLKPGALSNSESIPTIDGLRHVVVPGRLCPQFLQLASANTARGVETCGILCGKLMRNEFTITHVLIPKQSAGSDYCNTENEEELFLIQDQQGLITLGWIHTHPTQTAFLSSVDLHTHCSYQMMLPESVAIVCSPKFQETGFFKLTDHGLEEISSCRQKGFHPHSKDPPLFCSCSHVTVVDRAVTITDLR
partner: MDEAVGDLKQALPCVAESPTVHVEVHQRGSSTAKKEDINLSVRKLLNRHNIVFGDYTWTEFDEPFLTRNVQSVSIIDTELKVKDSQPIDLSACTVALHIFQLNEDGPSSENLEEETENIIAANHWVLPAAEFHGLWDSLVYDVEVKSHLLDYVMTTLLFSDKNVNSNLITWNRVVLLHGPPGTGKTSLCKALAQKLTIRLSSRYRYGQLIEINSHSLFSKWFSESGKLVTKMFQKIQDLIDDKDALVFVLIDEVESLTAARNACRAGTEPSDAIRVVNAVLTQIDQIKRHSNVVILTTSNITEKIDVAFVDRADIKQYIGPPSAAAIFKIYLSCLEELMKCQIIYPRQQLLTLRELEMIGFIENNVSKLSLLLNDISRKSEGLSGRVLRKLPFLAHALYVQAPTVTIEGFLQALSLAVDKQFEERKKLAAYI

Variants of: B1
Details: with bex5_human BEX5, Q5H9J7
bex5_human BEX5, Q5H9J7, sequence (Q5H9J7 whole entry): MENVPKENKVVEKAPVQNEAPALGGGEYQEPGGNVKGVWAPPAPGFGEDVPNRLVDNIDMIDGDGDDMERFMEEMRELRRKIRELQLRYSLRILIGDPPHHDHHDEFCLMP

Row | effect of a mutation on the interaction | Variant
1 | with no effect | R9C
2 | with no effect | R121H

Variants of: B2
Details: with ssna1_human SSNA1, O43805

Row | effect of a mutation on the interaction | Variant
3 | with no effect | Q685K
4 | with no effect | R556G

Variants of: B3
Details: with scnd1_human SCAND1, P57086

Row | effect of a mutation on the interaction | Variant
5 | with no effect | P256L
6 | with no effect | Q248E
7 | with no effect | I678V

Continued, variant first:

Row | Variant | effect of a mutation on the interaction
8 | N398S | with no effect
9 | G244E | with no effect

Variants of: B4
Details: with pch2_human TRIP13, Q15645

Row | effect of a mutation on the interaction | Variant
10 | disrupting interaction strength | Q155H
11 | with no effect | R255H
